These results are taken from the supplement of paper PMC7125110.

± gives the standard error. Fewer inactive variants are shown than the library holds.

The chains are these.
B1: glmS ribozyme (parent)
chain: AUAAAAGCGCCAGAACUACAGAAAUGUAGUUGACGAGGAGGAGGUUUAUCGAAUUUUCGGCGGAUGCCUCCAAA

One series covers variants of B1. Description: self-cleavage kobs at 2500 uM GlcN6P; higher = faster cleavage; RNA array. Particulars: with glucosamine-6-phosphate. In a few lines: (§1)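 Glucosamine-6-phosphate, from 40 μM to 10 mM in HEPES/KCl/Mg(OAc)2 buffer, was flowed over sequenced MiSeq chips carrying barcoded ribozyme variants transcribed in situ by E. coli RNA polymerase. A hybridised Cy3 probe tracked the variants at 37 °C as tiles were imaged over ~14 h. kobs, kcat and KM were obtained by fitting normalised per-tile medians to exponential decays and then applying weighted Michaelis–Menten fits across concentrations.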
Turning to G29A G60U C71A, the “self-cleavage kobs at 2500 uM GlcN6P” value is < 1e-05 s⁻¹.

Take U31C U55A G63C U69G: the “self-cleavage kobs at 2500 uM GlcN6P” value turned out to be 0.000106 ± 3.8e-05 s⁻¹.

For the variant G9C A15U G66C C70G, the “self-cleavage kobs at 2500 uM GlcN6P” value is < 1e-05 s⁻¹.

Consider C8G A42U U49C A52G, for which the “self-cleavage kobs at 2500 uM GlcN6P” value was < 1e-05 s⁻¹.

For A14C G21U G26U A36C, the “self-cleavage kobs at 2500 uM GlcN6P” value is < 1e-05 s⁻¹.

With A15U G29U U55A, the “self-cleavage kobs at 2500 uM GlcN6P” value turned out to be 0.00225 ± 0.00062 s⁻¹.

For A6U A12U U54G, the “self-cleavage kobs at 2500 uM GlcN6P” value is 0.000203 ± 6e-05 s⁻¹.

For the variant G35C C50A A52U, the “self-cleavage kobs at 2500 uM GlcN6P” value was < 1e-05 s⁻¹.

Consider U30C G35A C67G, for which the “self-cleavage kobs at 2500 uM GlcN6P” value was < 1e-05 s⁻¹.

Regarding A42G G43U G60U C61A, the “self-cleavage kobs at 2500 uM GlcN6P” value was < 1e-05 s⁻¹.

In the case of C10U C16U G37U G38A A39G C50G A64G U65C, the “self-cleavage kobs at 2500 uM GlcN6P” value came to 0.000287 ± 0.00013 s⁻¹.

For the variant A6G A36C U55C, the “self-cleavage kobs at 2500 uM GlcN6P” value is < 1e-05 s⁻¹.

U46G A48U G59U U69C: the “self-cleavage kobs at 2500 uM GlcN6P” value was < 1e-05 s⁻¹.

With G9C G59C G63U, the “self-cleavage kobs at 2500 uM GlcN6P” value is < 1e-05 s⁻¹.

Take A36G A48U A64C: the “self-cleavage kobs at 2500 uM GlcN6P” value was < 1e-05 s⁻¹.

Take C11G C50G C58A: the “self-cleavage kobs at 2500 uM GlcN6P” value turned out to be 0.00031 ± 0.00011 s⁻¹.

As for A14U U45C G60C G63C, the “self-cleavage kobs at 2500 uM GlcN6P” value is < 1e-05 s⁻¹.

Regarding A15C G32C U55C U57C U65C, the “self-cleavage kobs at 2500 uM GlcN6P” value was < 1e-05 s⁻¹.

Take C8G A52G G59A: the “self-cleavage kobs at 2500 uM GlcN6P” value is < 1e-05 s⁻¹.

For A6C A14G C50U, the “self-cleavage kobs at 2500 uM GlcN6P” value is < 1e-05 s⁻¹.

As for A6C A12G U55C C70A, the “self-cleavage kobs at 2500 uM GlcN6P” value was < 1e-05 s⁻¹.

Turning to A42U C50U G51U U54C, the “self-cleavage kobs at 2500 uM GlcN6P” value is < 1e-05 s⁻¹.

On to U54A C61A A64U C68U, for which the “self-cleavage kobs at 2500 uM GlcN6P” value was found to be 8.54e-05 ± 3.8e-05 s⁻¹.

As for A6C A39C C68U, the “self-cleavage kobs at 2500 uM GlcN6P” value is < 1e-05 s⁻¹.

Turning to A42G G51U C67U, the “self-cleavage kobs at 2500 uM GlcN6P” value was < 1e-05 s⁻¹.

As to G29C G32C, the “self-cleavage kobs at 2500 uM GlcN6P” value was 2.89e-05 ± 9.4e-06 s⁻¹.

As to C10U G32U U69A, the “self-cleavage kobs at 2500 uM GlcN6P” value was determined as 4.03e-05 ± 1.7e-05 s⁻¹.

As to C8U U54A C58G, the “self-cleavage kobs at 2500 uM GlcN6P” value was < 1e-05 s⁻¹.

Take C34U G59A C71U: the “self-cleavage kobs at 2500 uM GlcN6P” value was < 1e-05 s⁻¹.

For A12G C16U A53C, the “self-cleavage kobs at 2500 uM GlcN6P” value stood at 7.22e-05 ± 1.7e-05 s⁻¹.

Consider G29A G63C C68G, for which the “self-cleavage kobs at 2500 uM GlcN6P” value was 0.000233 ± 6.2e-05 s⁻¹.

Regarding G38U C67G C68U, the “self-cleavage kobs at 2500 uM GlcN6P” value is 0.000248 ± 8.4e-05 s⁻¹.

As for A15U C16U U45A, the “self-cleavage kobs at 2500 uM GlcN6P” value turned out to be 0.00158 ± 0.00051 s⁻¹.

Turning to U31C G38U A53U, the “self-cleavage kobs at 2500 uM GlcN6P” value was < 1e-05 s⁻¹.

A15C U69G: the “self-cleavage kobs at 2500 uM GlcN6P” value amounted to 7.29e-05 ± 2.2e-05 s⁻¹.

Take G40U C58G G60U C68U: the “self-cleavage kobs at 2500 uM GlcN6P” value is < 1e-05 s⁻¹.

In the case of C8G A12G U54G A64C U65A C71G, the “self-cleavage kobs at 2500 uM GlcN6P” value was < 1e-05 s⁻¹.

Take C11A C34A C58U C61G G62A: the “self-cleavage kobs at 2500 uM GlcN6P” value is < 1e-05 s⁻¹.

Regarding C11U A15G G37A G60A, the “self-cleavage kobs at 2500 uM GlcN6P” value was < 1e-05 s⁻¹.

On to G9C A48G C67U, for which the “self-cleavage kobs at 2500 uM GlcN6P” value is < 1e-05 s⁻¹.

Take A33C A36U G38C: the “self-cleavage kobs at 2500 uM GlcN6P” value is < 1e-05 s⁻¹.

For the variant C19A A42C, the “self-cleavage kobs at 2500 uM GlcN6P” value is < 1e-05 s⁻¹.

For C8G A33C C34U U46G U65C, the “self-cleavage kobs at 2500 uM GlcN6P” value was < 1e-05 s⁻¹.

Take C8U G32U C34U C58G: the “self-cleavage kobs at 2500 uM GlcN6P” value is < 1e-05 s⁻¹.

G13C C16G U69G: the “self-cleavage kobs at 2500 uM GlcN6P” value is 7.16e-05 ± 3.5e-05 s⁻¹.

As to G59U A64C G66C, the “self-cleavage kobs at 2500 uM GlcN6P” value is < 1e-05 s⁻¹.

In the case of A6G U65C C68U, the “self-cleavage kobs at 2500 uM GlcN6P” value was < 1e-05 s⁻¹.

Turning to C61G C68G, the “self-cleavage kobs at 2500 uM GlcN6P” value is 0.000131 ± 5.8e-05 s⁻¹.

With A12U A39G U55C, the “self-cleavage kobs at 2500 uM GlcN6P” value was found to be 0.0482 ± 0.021 s⁻¹.

For U57C G66A, the “self-cleavage kobs at 2500 uM GlcN6P” value was found to be 4.71e-05 ± 1.3e-05 s⁻¹.

For C34A G41A U47C, the “self-cleavage kobs at 2500 uM GlcN6P” value was < 1e-05 s⁻¹.

In the case of G40A G41C A42C U49C, the “self-cleavage kobs at 2500 uM GlcN6P” value is < 1e-05 s⁻¹.

As for A15G C50G, the “self-cleavage kobs at 2500 uM GlcN6P” value stood at 8.29e-05 ± 3.5e-05 s⁻¹.

For C16A G29A C70A, the “self-cleavage kobs at 2500 uM GlcN6P” value is 6.39e-05 ± 2.4e-05 s⁻¹.

Consider G13A C16U G29U, for which the “self-cleavage kobs at 2500 uM GlcN6P” value was 5.93e-05 ± 2e-05 s⁻¹.

For U47G G62U G63U U65G, the “self-cleavage kobs at 2500 uM GlcN6P” value is < 1e-05 s⁻¹.

For the variant A14C A42G G43U C70A, the “self-cleavage kobs at 2500 uM GlcN6P” value is < 1e-05 s⁻¹.

As to C50U A52C C58U, the “self-cleavage kobs at 2500 uM GlcN6P” value is < 1e-05 s⁻¹.

For C11G G35A G40A, the “self-cleavage kobs at 2500 uM GlcN6P” value was < 1e-05 s⁻¹.

With G32A G41U C50U U56A G62U, the “self-cleavage kobs at 2500 uM GlcN6P” value was < 1e-05 s⁻¹.

G43U C68A C70U C71A: the “self-cleavage kobs at 2500 uM GlcN6P” value amounted to 9.92e-05 ± 2.8e-05 s⁻¹.

For C11G G13A G44A, the “self-cleavage kobs at 2500 uM GlcN6P” value was < 1e-05 s⁻¹.

For the variant G7A U49A A52C, the “self-cleavage kobs at 2500 uM GlcN6P” value was < 1e-05 s⁻¹.

With A6U C58A C67A, the “self-cleavage kobs at 2500 uM GlcN6P” value is < 1e-05 s⁻¹.

Take G9C C10U A15G U69G: the “self-cleavage kobs at 2500 uM GlcN6P” value was < 1e-05 s⁻¹.

On to G29A G32C C34A A48G U57A, for which the “self-cleavage kobs at 2500 uM GlcN6P” value was < 1e-05 s⁻¹.

As to A14G U46C A48C C68U, the “self-cleavage kobs at 2500 uM GlcN6P” value was determined as 8.06e-05 ± 3.1e-05 s⁻¹.

For the variant G13U A39U U56A, the “self-cleavage kobs at 2500 uM GlcN6P” value came to 0.000101 ± 2e-05 s⁻¹.

As for A6U G9C A33C C50G A52C U56C C68A C71U, the “self-cleavage kobs at 2500 uM GlcN6P” value is < 1e-05 s⁻¹.

Consider C8G A12U C16U G43U, for which the “self-cleavage kobs at 2500 uM GlcN6P” value is < 1e-05 s⁻¹.

Turning to G38A A52G U57A C68A, the “self-cleavage kobs at 2500 uM GlcN6P” value came out at 7.01e-05 ± 1.7e-05 s⁻¹.

Consider G41C U47C C61G C67U, for which the “self-cleavage kobs at 2500 uM GlcN6P” value is < 1e-05 s⁻¹.

For the variant A14U G32U C71A, the “self-cleavage kobs at 2500 uM GlcN6P” value was 4.64e-05 ± 2e-05 s⁻¹.

Consider A6U C10U A12C G60A C67U, for which the “self-cleavage kobs at 2500 uM GlcN6P” value is < 1e-05 s⁻¹.

Take A52G A53U G66C C67G: the “self-cleavage kobs at 2500 uM GlcN6P” value was < 1e-05 s⁻¹.

For A14C A15G C16U, the “self-cleavage kobs at 2500 uM GlcN6P” value was determined as 4.99e-05 ± 1.9e-05 s⁻¹.

G13U A42C U69A: the “self-cleavage kobs at 2500 uM GlcN6P” value was < 1e-05 s⁻¹.

On to G32C C50G C67G, for which the “self-cleavage kobs at 2500 uM GlcN6P” value was determined as 4.82e-05 ± 1.8e-05 s⁻¹.

As to C11U G40A U49C G59C, the “self-cleavage kobs at 2500 uM GlcN6P” value is < 1e-05 s⁻¹.

As to G7U G13U A42U G44C, the “self-cleavage kobs at 2500 uM GlcN6P” value was < 1e-05 s⁻¹.

Consider G13C A14C G35C, for which the “self-cleavage kobs at 2500 uM GlcN6P” value is < 1e-05 s⁻¹.

The variants in the next series derive from B1. Description: self-cleavage kobs at 10000 uM GlcN6P; higher = faster cleavage; RNA array. To be noted: with glucosamine-6-phosphate. In a few lines: as §1
Consider C10U C16U G37U G38A A39G C50G A64G U65C, for which the “self-cleavage kobs at 10000 uM GlcN6P” value was 0.0013 ± 0.0004 s⁻¹.

As for G9C G59C G63U, the “self-cleavage kobs at 10000 uM GlcN6P” value is < 1e-05 s⁻¹.

Turning to A15C G32C U55C U57C U65C, the “self-cleavage kobs at 10000 uM GlcN6P” value is < 1e-05 s⁻¹.

With G29C G32C, the “self-cleavage kobs at 10000 uM GlcN6P” value was determined as 9.51e-05 ± 1.2e-05 s⁻¹.

As for U57C G66A, the “self-cleavage kobs at 10000 uM GlcN6P” value was 0.000102 ± 1.5e-05 s⁻¹.

As to G32A G41U C50U U56A G62U, the “self-cleavage kobs at 10000 uM GlcN6P” value was < 1e-05 s⁻¹.

As to A6U G9C A33C C50G A52C U56C C68A C71U, the “self-cleavage kobs at 10000 uM GlcN6P” value was < 1e-05 s⁻¹.

With A14U G32U C71A, the “self-cleavage kobs at 10000 uM GlcN6P” value worked out at 7.15e-05 ± 2.1e-05 s⁻¹.
